Measurements published in publication PMC9282010 (Molecular Biology of the Cell, 2022).

T1: Vam3, the vacuolar Qa-SNARE (wild type) (yeast, UniProt Q12241 1-283)
T1 sequence: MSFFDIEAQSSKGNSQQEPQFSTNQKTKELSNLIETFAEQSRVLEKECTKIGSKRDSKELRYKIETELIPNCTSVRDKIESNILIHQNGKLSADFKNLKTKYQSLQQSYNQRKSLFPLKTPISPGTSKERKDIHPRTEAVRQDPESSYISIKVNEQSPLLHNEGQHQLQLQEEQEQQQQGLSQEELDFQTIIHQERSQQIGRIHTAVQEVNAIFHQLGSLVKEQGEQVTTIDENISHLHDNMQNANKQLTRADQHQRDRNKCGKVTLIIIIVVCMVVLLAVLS

B1: Qa(JxR): Vam3 with the juxtamembrane region of Nyv1 and its own TM (other)
chain: MSFFDIEAQSSKGNSQQEPQFSTNQKTKELSNLIETFAEQSRVLEKECTKIGSKRDSKELRYKIETELIPNCTSVRDKIESNILIHQNGKLSADFKNLKTKYQSLQQSYNQRKSLFPLKTPISPGTSKERKDIHPRTEAVRQDPESSYISIKVNEQSPLLHNEGQHQLQLQEEQEQQQQGLSQEELDFQTIIHQERSQQIGRIHTAVQEVNAIFHQLGSLVKEQGEQVTTIDENISHLHDNMQNANKQLTRADEIMWWQKVKKVTLIIIIVVCMVVLLAVLS
B2: Vti1, the vacuolar Qb-SNARE (wild type, membrane-anchored) (natural protein)
chain: MSSLLISYESDFKTTLEQAKASLAEAPSQPLSQRNTTLKHVEQQQDELFDLLDQMDVEVNNSIGDASERATYKAKLREWKKTIQSDIKRPLQSLVDSGDRDRLFGDLNASNIDDDQRQQLLSNHAILQKSGDRLKDASRIANETEGIGSQIMMDLRSQRETLENARQTLFQADSYVDKSIKTLKTMTRRLVANKFISYAIIAVLILLILLVLFSKFK
B3: R(JxQa): Nyv1 with the juxtamembrane region of Vam3 and its own TM (other)
chain: MKRFNVSYVEVIKNGETISSCFQPFQKNENYGTITSANEQITPVIFHNLIMDMVLPKVVPIKGNKVTKMSMNLIDGFDCFYSTDDHDPKTVYVCFTLVDMPKILPIRILSGLQEYESNATNELLSSHVGQILDSFHEELVEYRNQTLNSSGNGQSSNGNGQNTISDIGDATEDQIKDVIQIMNDNIDKFLERQERVSLLVDKTSQLNSSSNKFRRKAVNIKQHQRDRNKCGNITLLTFTIILFVSAAFMFFYLW

What was measured:
Assay in all cases: co-IP
[1] = molecular target: B2
[2] = molecular target: T1, Vam3, the vacuolar Qa-SNARE (wild type)
[3] = molecular target: B1

B1: binds [1].

B2: binds [2].

B3: binds [3].
